What was measured:
[1] = molecular target: T1, Recombinant mouse ribonucleotide reductase R1 protein (mouse, UniProt P07742 1-792); assay: BIAcore biosensor, mouse R1 protein alone at 0.1 mg/ml over immobilized Sml1p, prolonged injection, bulk effect not subtracted
T1 construct: also called mouse R1 protein
T1 sequence (looked up): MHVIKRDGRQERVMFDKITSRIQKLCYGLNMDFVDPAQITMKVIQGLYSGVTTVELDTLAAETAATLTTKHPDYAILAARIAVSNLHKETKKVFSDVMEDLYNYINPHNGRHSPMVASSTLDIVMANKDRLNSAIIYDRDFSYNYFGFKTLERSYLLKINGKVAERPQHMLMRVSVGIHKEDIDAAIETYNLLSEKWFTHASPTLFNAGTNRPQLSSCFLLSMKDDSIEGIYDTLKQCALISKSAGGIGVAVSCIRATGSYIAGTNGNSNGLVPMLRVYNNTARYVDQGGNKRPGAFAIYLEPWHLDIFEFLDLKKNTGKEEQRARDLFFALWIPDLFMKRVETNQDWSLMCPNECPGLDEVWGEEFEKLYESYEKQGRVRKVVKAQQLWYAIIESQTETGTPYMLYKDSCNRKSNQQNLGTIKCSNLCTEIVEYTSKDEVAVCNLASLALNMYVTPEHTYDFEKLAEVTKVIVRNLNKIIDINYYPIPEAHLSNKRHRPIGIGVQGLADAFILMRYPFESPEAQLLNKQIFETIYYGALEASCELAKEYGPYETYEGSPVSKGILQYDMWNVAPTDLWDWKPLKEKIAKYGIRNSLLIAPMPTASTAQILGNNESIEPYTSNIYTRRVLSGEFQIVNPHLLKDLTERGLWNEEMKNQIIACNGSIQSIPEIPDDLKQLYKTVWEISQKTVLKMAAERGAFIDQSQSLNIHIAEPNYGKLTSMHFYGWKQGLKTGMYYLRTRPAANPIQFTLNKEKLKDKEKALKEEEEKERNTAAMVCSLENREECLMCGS

[2] = molecular target: T2, Recombinant mouse ribonucleotide reductase R2 protein (mouse, UniProt P11157 1-390); assay: BIAcore, immobilized Sml1p
T2 construct: also called mouse R2 protein
T2 sequence (looked up): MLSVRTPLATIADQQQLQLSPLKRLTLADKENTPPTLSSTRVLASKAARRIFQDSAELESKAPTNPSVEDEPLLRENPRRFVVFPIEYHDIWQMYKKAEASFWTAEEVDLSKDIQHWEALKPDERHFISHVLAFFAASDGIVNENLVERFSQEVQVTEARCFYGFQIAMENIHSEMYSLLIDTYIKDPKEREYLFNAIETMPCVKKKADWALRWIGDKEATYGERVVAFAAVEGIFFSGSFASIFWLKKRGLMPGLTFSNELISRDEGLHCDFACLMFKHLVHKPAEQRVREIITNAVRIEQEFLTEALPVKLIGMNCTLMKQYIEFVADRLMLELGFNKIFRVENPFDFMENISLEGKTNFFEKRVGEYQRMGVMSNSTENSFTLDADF

[3] = molecular target: T3, Yeast Rnr2p/Rnr4p heterodimer (yeast (Saccharomyces cerevisiae), UniProt P09938 1-399; P49723 1-345); assay: BIAcore, immobilized Sml1p
T3 construct: Coexpressed and purified as a heterodimer; also called R2/R4 heterodimer
T3 sequence (looked up) 1: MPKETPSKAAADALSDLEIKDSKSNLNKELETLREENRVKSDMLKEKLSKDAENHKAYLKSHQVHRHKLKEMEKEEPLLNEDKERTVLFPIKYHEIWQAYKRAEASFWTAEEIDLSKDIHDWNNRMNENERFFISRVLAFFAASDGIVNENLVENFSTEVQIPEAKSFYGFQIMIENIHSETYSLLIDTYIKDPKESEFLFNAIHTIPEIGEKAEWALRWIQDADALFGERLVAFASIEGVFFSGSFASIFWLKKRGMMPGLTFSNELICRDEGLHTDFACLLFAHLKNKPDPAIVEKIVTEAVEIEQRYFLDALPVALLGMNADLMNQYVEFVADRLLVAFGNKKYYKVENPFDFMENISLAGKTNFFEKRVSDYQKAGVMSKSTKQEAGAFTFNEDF
T3 sequence (looked up) 2: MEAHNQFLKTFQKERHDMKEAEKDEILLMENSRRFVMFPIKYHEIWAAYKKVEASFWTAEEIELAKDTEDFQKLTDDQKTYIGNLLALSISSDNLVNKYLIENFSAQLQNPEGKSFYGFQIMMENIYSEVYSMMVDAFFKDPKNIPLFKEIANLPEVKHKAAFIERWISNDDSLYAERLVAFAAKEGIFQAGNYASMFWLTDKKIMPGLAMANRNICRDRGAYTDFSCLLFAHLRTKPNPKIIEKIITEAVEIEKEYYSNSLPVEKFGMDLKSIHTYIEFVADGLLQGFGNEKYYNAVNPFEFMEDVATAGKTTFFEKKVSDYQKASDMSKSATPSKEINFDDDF

bovine serum albumin = molecular target: T4, bovine serum albumin (bovine, UniProt P02769 25-607); assay: BIAcore, immobilized Sml1p
T4 construct: Control; also called BSA
T4 sequence (P02769 25-607 limits assumed): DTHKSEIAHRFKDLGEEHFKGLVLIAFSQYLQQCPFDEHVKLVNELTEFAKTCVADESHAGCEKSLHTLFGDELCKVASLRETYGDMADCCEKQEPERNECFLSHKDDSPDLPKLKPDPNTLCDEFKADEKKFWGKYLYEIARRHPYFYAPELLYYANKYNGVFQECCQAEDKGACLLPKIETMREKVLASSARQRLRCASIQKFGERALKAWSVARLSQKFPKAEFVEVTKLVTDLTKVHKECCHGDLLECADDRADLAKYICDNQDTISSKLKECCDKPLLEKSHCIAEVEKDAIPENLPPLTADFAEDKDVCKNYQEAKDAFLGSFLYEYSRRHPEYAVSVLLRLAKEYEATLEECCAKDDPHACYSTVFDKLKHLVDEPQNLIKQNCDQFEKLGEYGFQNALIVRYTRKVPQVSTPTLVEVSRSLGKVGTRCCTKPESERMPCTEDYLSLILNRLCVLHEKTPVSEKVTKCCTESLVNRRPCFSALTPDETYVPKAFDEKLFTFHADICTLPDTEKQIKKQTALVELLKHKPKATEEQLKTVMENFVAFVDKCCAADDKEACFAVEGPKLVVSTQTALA

B1: Recombinant yeast Sml1 protein (other)
chain: MQNSQDYFYAQNRCQQQQAPSTLRTVTMAEFRRVPLPPMAEVPMLSTQNSMGSSASASASSLEMWEKDLEERLNSIDHDMNNNKFGSGELKSMFNQGKVEEMDF
notes: Immobilized on the BIAcore chip in the biosensor experiments; also called YML058W product
Q: Does B1 bind [1]?
A: Result: binds

Q: Does B1 bind [2]?
A: Result: no binding

Q: Does B1 bind [3]?
A: Result: no binding (tested: 0.1 mg/ml)

Q: Does B1 bind (bovine serum albumin)?
A: Result: no binding (tested: 0.1 mg/ml)

From patent US7125658B2, “Small protein that interacts with a ribonucleotide reductase subunit and uses thereof” (The Trustees of Columbia University in the City of New York, priority 1998, dated 2006)
